# Measured values: patent US20190381186A1 (TRUSTEES OF BOSTON UNIVERSITY, published 2019)
# B1: receiving peptide MK(LKKIKSV)4VGER (peptide)
# peptide: MKLKKIKSVLKKIKSVLKKIKSVLKKIKSVVGER
# notes: With the docking peptide it is said to form a tetramer of two peptides of each type; also called V/K peptide
# How the values were obtained:
# [1] = molecular target: the molecule itself; assay: circular dichroism spectra, 200-260 nm
# [2] = molecular target: B1; assay: isothermal titration calorimetry (FIG. 2C); ITC, docking peptide with receiving peptide (FIG. 2C)
Binder,binding result [1],Kd [2] [nM]
B1,no binding (tested: 100 µM),
MKLEEIVSELEEIVSELEEIVTELEEIVSEVGER (also called V/E peptide) [docking peptide MK(LEEIVSE)2LEEIVTELEEIVSEVGER],no binding (tested: 100 µM),62
